Measurements taken from publication PMC5300761, “Characterizing the Coding Region Determinant-Binding Protein (CRD-BP)-Microphthalmia-associated Transcription Factor (MITF) mRNA interaction”.

B1: MHO-7_FL (ssDNA)
DNA: ATTCAGTTCACAGATACTGCAC
B2: FL-CD44 RNA (ssRNA)
RNA: AAAUUAGGGCCCAAUUAAUAAUCAGCAAGAAUUUGAUCG
B3: MHO-1_FL (ssDNA)
DNA: TAAAAATCTCAAATCAAGTTTC

Key:
CRD-BP WT [1] = biological target: T1, CRD-BP WT (mouse, UniProt O88477 1-577); experiment: fluorescence polarization; 10 nM oligo, 0-1000 nM protein; EMSA as in refs 21,22 (buffer not given; competitor preincubation 35 C); FP: binding buffer stock 10 mM Tris-HCl pH 7.4, 2.5 mM EDTA, 5% glycerol, 0.002% Triton X-100, 37 C 30 min; details: protein: recombinant; (pET28b(+), Ni-NTA); label: 3' 6-FAM
T1 sequence (O88477 whole entry): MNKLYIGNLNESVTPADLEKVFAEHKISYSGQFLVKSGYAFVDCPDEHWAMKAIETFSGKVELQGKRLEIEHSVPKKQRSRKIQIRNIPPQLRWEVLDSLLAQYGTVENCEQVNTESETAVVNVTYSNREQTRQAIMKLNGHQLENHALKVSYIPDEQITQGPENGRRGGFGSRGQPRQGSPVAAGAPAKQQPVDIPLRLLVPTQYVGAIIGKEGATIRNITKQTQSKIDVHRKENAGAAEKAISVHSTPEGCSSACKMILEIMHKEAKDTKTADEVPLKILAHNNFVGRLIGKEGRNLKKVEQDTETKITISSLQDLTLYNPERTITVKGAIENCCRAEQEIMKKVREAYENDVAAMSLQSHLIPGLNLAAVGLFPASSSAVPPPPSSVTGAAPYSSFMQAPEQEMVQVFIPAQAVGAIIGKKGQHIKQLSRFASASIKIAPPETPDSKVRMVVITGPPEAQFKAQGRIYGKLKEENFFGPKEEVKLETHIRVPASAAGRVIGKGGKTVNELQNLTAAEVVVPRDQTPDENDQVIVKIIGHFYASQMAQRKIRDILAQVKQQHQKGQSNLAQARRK

CRD-BP WT [2] = biological target: T1, CRD-BP WT; experiment: fluorescence polarization; 10 nM RNA, 0-1000 nM protein; EMSA as in refs 21,22 (buffer not given; competitor preincubation 35 C); FP: binding buffer stock 10 mM Tris-HCl pH 7.4, 2.5 mM EDTA, 5% glycerol, 0.002% Triton X-100, 37 C 30 min; details: protein: recombinant; (pET28b(+), Ni-NTA); label: 3' 6-FAM

Binder | binding result (CRD-BP WT [1]) | binding result (CRD-BP WT [2])
B1 | no binding | 
B2 |  | binds
B3 | no binding | 
